Data as given in article PMC10287905, “Proper RPA acetylation promotes accurate DNA replication and repair” (Nucleic Acids Research, 2023).

How the values were obtained:
Test in all cases: MST; RED-tris-NTA labelled 6xHis-Rtt105 at constant 100 nM, serial dilutions of RPA complex from 200 to 0.0058 nM; 1x PBS with 0.05% Tween 20; 50 min at room temperature; Monolith NT.115
Details in all cases: both partners purified
[1] = target: T1, 4KQ RPA complex (yeast, UniProt P22336 1-621; P26754 1-273; P26755 1-122, K259Q | K427Q | K463Q | K494Q)
T1 construct: Rfa1, largest subunit of yeast RPA, four lysines mutated to glutamine; Rfa2, subunit of yeast RPA; Rfa3, subunit of yeast RPA; also called 4KQ mutant RPA; source: purified from yeast cells; copies: + +

[2] = target: T2, 4KR RPA complex (yeast, UniProt P22336 1-621; P26754 1-273; P26755 1-122, K259R | K427R | K463R | K494R)
T2 construct: Rfa1, largest subunit of yeast RPA, four lysines mutated to arginine; Rfa2, subunit of yeast RPA; Rfa3, subunit of yeast RPA; also called 4KR mutant RPA; source: purified from yeast cells; copies: + +

[3] = target: T3, WT RPA complex (yeast, UniProt P22336 1-621; P26754 1-273; P26755 1-122)
T3 construct: Rfa1, largest subunit of yeast RPA; Rfa2, subunit of yeast RPA; Rfa3, subunit of yeast RPA; the MST methods say only 'RPA complex'; source: purified from yeast cells; copies: + +
T3 sequence (P22336 whole entry, chain 1 of 3): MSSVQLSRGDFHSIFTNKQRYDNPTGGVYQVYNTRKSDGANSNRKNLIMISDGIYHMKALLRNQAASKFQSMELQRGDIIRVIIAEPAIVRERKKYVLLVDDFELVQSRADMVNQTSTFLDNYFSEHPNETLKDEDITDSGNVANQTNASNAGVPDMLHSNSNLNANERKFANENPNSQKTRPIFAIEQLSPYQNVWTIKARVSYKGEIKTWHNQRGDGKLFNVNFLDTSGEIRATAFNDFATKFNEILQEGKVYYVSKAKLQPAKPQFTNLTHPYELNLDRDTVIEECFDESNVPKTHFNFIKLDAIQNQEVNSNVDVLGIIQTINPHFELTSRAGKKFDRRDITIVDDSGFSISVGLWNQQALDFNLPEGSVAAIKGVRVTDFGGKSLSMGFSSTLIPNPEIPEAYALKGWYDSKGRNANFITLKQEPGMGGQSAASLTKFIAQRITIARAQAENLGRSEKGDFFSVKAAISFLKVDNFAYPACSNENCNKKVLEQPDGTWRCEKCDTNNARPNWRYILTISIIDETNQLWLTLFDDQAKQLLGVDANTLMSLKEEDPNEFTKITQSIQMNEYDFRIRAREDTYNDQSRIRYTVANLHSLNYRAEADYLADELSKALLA
T3 sequence (P26754 whole entry, chain 2 of 3): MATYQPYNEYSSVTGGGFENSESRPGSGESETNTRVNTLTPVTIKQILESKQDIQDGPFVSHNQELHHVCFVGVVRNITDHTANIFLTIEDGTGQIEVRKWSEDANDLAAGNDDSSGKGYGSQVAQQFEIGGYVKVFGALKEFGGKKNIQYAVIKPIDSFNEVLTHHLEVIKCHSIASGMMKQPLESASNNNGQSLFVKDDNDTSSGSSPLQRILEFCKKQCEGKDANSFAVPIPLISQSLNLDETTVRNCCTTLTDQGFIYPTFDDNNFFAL
T3 sequence (P26755 whole entry, chain 3 of 3): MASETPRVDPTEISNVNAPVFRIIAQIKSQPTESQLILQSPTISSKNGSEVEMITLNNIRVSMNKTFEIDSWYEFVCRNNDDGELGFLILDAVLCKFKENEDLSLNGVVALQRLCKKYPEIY

T2 sequence (P22336 whole entry K259R/K427R/K463R/K494R, chain 1 of 3): as the sequence (P22336 whole entry, chain 1 of 3) above, with K259R, K427R, K463R, K494R counted along it
T2 sequence (P26754 whole entry, chain 2 of 3): as the sequence (P26754 whole entry, chain 2 of 3) above
T2 sequence (P26755 whole entry, chain 3 of 3): as the sequence (P26755 whole entry, chain 3 of 3) above
T1 sequence (P22336 whole entry K259Q/K427Q/K463Q/K494Q, chain 1 of 3): as the sequence (P22336 whole entry, chain 1 of 3) above, with K259Q, K427Q, K463Q, K494Q counted along it
T1 sequence (P26754 whole entry, chain 2 of 3): as the sequence (P26754 whole entry, chain 2 of 3) above
T1 sequence (P26755 whole entry, chain 3 of 3): as the sequence (P26755 whole entry, chain 3 of 3) above

B1: 6xHis-Rtt105 (natural protein, yeast, UniProt P40063 1-208, looked up)
chain: MYSNHNLNSDDCCFDWNEEKAAELQRTGVSFDRSLTPQSLRTSTRRLSEENKQQSGTMHIDTSPSVVSDIISSRRDRSQDFFGPHSSSPIAPSERQRADQRSRLESMRLTRRRDKMTKVRGGLEKMEEMIMQGEHLREMQRLKQEAQKNALPSDMAEYMEWQNNEDLEDDELLAFIEKQETYKNELEHFLNNANKNVYENNSYPNSHT
modifications: labelled with a RED-tris-NTA protein labelling kit
notes: Rtt105, yeast RPA chaperone protein
B1 showed a Kd [1] of about 0.51 nM, a Kd [2] of about 1.17 nM and a Kd [3] of about 1.06 nM.
